These results are taken from PMC6237438.

Assay [1] has as its target VRC01GL IgG (inferred germline precursor of the VRC01 antibody). Nature of the assay: BLI. The conditions noted are these: 426c core (293F-expressed) injected at 0.5, 1, 2.5, 4, 5, 10, 20, 40, 80, 160 µM.
In assay [2] the target is VRC01GL IgG (inferred germline precursor of the VRC01 antibody) (human). In words: BLI; IgG immobilised on anti-AHC biosensors (20 µg/ml in PBS); DS-SOSIP trimer or 426c core in solution, dilution series; Octet Red 96, 29°C, 500 r.p.m.; kinetic buffer (1X PBS, 0.01% BSA, 0.02% Tween 20, 0.005% NaN3); 1:1 binding model; relative apparent affinities.
The target in another assay is 12A21GL IgG (human). Described as above.
For another assay, the target named is VRC01GL Fab (human). Nature of the assay: BLI; Fab immobilised on anti-human Fab-CH1 (FAB2G) biosensors; 426c core in solution; Octet Red 96, 29°C, 500 r.p.m.; kinetic buffer (1X PBS, 0.01% BSA, 0.02% Tween 20, 0.005% NaN3); 1:1 binding model; relative apparent affinities.

In turn, “426c core (wild-type NLGSs), HEK293F-expressed S278A; T465A” displayed a Kd in assay [1] of 8.9 µM.
Same read-out and setting: for “426c core (wild-type NLGSs), HEK293F-expressed S278A” the value was 1.9 µM.
As for “EndoH-treated 426c core (HEK293 GnTI-/--expressed) (domain or fragment)”, the Kd in assay [2] was 0.245 µM.
As for “426c S278A core, HEK293 GnTI-/--expressed (domain or fragment)”, the Kd in assay [2] was 0.204 µM.
For “426c S278T core, HEK293 GnTI-/--expressed (domain or fragment)”, the fold change of KD against the 426c core (with 12A21GL IgG (human); in assay [2]) was 10 fold throughout.
“426c core (wild-type NLGSs), HEK293F-expressed S278A; T462A”: the Kd in assay [1] was 2.5 µM.
With “426c core (wild-type NLGSs), HEK293 GnTI-/--expressed (domain or fragment)”, the values for the Kd (in the assay with VRC01GL Fab (human); in assay [2]) were 15 µM and 2 µM, respectively.
In the case of “426c core (wild-type NLGSs), HEK293F-expressed (domain or fragment)”, the Kd with VRC01GL Fab (human) is 11 µM.
Turning to “426c DS-SOSIP D3 trimer (from UniProt Q2N0S6 1-860) (complex)”, the Kd in assay [2] worked out at 0.043 µM.
